Measured values from patent publication US20230407373A1 (priority 2020, published 2023).
Read-outs that look alike come from different tables or passages of the source.

Experiments:
[1] = system: HCoV-OC43 gRNA and sgRNA; type: binding; settings: for target (unweighted spectral count, OC43 Probe II capture): tested against no-probe control, FDR<10%; for target (unweighted spectral count, OC43 Probe II) / background (unweighted spectral count, no-probe control): type n_48_v, 48 hpi; for target (unweighted spectral count, OC43 Probe II): OC43 Probe II capture on infected cells; for background (unweighted spectral count, no-probe control): no-probe control on infected cells; for target (spectral count) / background (spectral count): type s_36_m, Probe II; for target (spectral count): HCoV-OC43-infected HCT-8 cells; for background (spectral count): uninfected-probe control
[2] = system: gRNA of HCoV-OC43; type: binding; settings: for target (spectral count, OC43 Probe I RNP capture) / background (spectral count, no-probe control): type n_48_v: 48 hours post-infection; for target (spectral count, OC43 Probe I RNP capture): infected cells, unweighted spectral count; for background (spectral count, no-probe control): no-probe control on infected cells

Row | Molecule | target (unweighted spectral count, OC43 Probe II capture) ([1]; 24 hpi, type n_24_v) | target (unweighted spectral count, OC43 Probe II capture) ([1]; 36 hpi, type n_36_v) | target (unweighted spectral count, OC43 Probe II) [1] | background (unweighted spectral count, no-probe control) [1] | target (spectral count, OC43 Probe I RNP capture) [2] | background (spectral count, no-probe control) [2] | target (spectral count) ([1]; 36 hpi) | background (spectral count) ([1]; 36 hpi) | target (spectral count) ([2]; type g_36_m, HCoV-OC43-infected HCT-8 cells, 36 hpi, Probe I) | background (spectral count) ([2]; type g_36_m, uninfected-probe control, 36 hpi, Probe I)
1 | ESRP2 (protein, UniProt Q9H6T0 1-727, looked up) Epithelial splicing …: MTPPPPPPPPPGPDPAADPAADPCPWPGSLVVLFGATAGALGRDLGSDETDLILLVWQVVEPRSRQVGTLHKSLVRAEAAALSTQCREASGLSADSLARAEPLDKVLQQFSQLVNGDVALLGGGPYMLCTDGQQLLRQVLHPEASRKNLVLPDMFFSFYDLRREFHMQHPSTCPARDLTVATMAQGLGLETDATEDDFGVWEVKTMVAVILHLLKEPSSQLFSKPEVIKQKYETGPCSDSTVPCPYSSKADVVDSETVVRARGLPWQSSDQDVARFFKGLNVARGGVALCLNAQGRRNGEALIRFVDSEQRDLALQRHKHHMGVRYIEVYKATGEEFVKIAGGTSLEVARFLSREDQVILRLRGLPFSAGPTDVLGFLGPECPVTGGTEGLLFVRHPDGRPTGDAFALFACEELAQAALRRHKGMLGKRYIELFRSTAAEVQQVLNRYASGPLLPTLTAPLLPIPFPLAPGTGRDCVRLRGLPYTATIEDILSFLGEAAADIRPHGVHMVLNQQGRPSGDAFIQMTSAERALAAAQRCHKKVMKERYVEVVPCSTEEMSRVLMGGTLGRSGMSPPPCKLPCLSPPTYTTFQATPTLIPTETAALYPSSALLPAARVPAAPTPVAYYPGPATQLYLNYTAYYPSPPVSPTTVGYLTTPTAALASAPTSVLSQSGALVRMQGVPYTAGMKDLLSVFQAYQLPADDYTSLMPVGDPPRTVLQAPKEWVCL | 5 | 6 | 8 | 1 | 6 | 1 |  |  |  | 
2 | POP1: host protein, UniProt Q99575 (protein, UniProt Q99575 1-1024, looked up) Ribonucleases P/MRP protein …: MSNAKERKHAKKMRNQPTNVTLSSGFVADRGVKHHSGGEKPFQAQKQEPHPGTSRQRQTRVNPHSLPDPEVNEQSSSKGMFRKKGGWKAGPEGTSQEIPKYITASTFAQARAAEISAMLKAVTQKSSNSLVFQTLPRHMRRRAMSHNVKRLPRRLQEIAQKEAEKAVHQKKEHSKNKCHKARRCHMNRTLEFNRRQKKNIWLETHIWHAKRFHMVKKWGYCLGERPTVKSHRACYRAMTNRCLLQDLSYYCCLELKGKEEEILKALSGMCNIDTGLTFAAVHCLSGKRQGSLVLYRVNKYPREMLGPVTFIWKSQRTPGDPSESRQLWIWLHPTLKQDILEEIKAACQCVEPIKSAVCIADPLPTPSQEKSQTELPDEKIGKKRKRKDDGENAKPIKKIIGDGTRDPCLPYSWISPTTGIIISDLTMEMNRFRLIGPLSHSILTEAIKAASVHTVGEDTEETPHRWWIETCKKPDSVSLHCRQEAIFELLGGITSPAEIPAGTILGLTVGDPRINLPQKKSKALPNPEKCQDNEKVRQLLLEGVPVECTHSFIWNQDICKSVTENKISDQDLNRMRSELLVPGSQLILGPHESKIPILLIQQPGKVTGEDRLGWGSGWDVLLPKGWGMAFWIPFIYRGVRVGGLKESAVHSQYKRSPNVPGDFPDCPAGMLFAEEQAKNLLEKYKRRPPAKRPNYVKLGTLAPFCCPWEQLTQDWESRVQAYEEPSVASSPNGKESDLRRSEVPCAPMPKKTHQPSDEVGTSIEHPREAEEVMDAGCQESAGPERITDQEASENHVAATGSHLCVLRSRKLLKQLSAWCGPSSEDSRGGRRAPGRGQQGLTREACLSILGHFPRALVWVSLSLLSKGSPEPHTMICVPAKEDFLQLHEDWHYCGPQESKHSDPFRSKILKQKEKKKREKRQKPGRASSDGPAGEEPVAGQEALTLGLWSGPLPRVTLHCSRTLLGFVTQGDFSMAVGCGEALGFVSLTGLLDMLSSQPAAQRGLVLLRPPASLQYRFARIAIEV |  | 8 | 7 | 1 | 6 | 1 | 8 | 1 |  | 
3 | RBM4 (protein, UniProt Q9BWF3 1-364, looked up) RNA-binding protein 4: MVKLFIGNLPREATEQEIRSLFEQYGKVLECDIIKNYGFVHIEDKTAAEDAIRNLHHYKLHGVNINVEASKNKSKTSTKLHVGNISPTCTNKELRAKFEEYGPVIECDIVKDYAFVHMERAEDAVEAIRGLDNTEFQGKRMHVQLSTSRLRTAPGMGDQSGCYRCGKEGHWSKECPIDRSGRVADLTEQYNEQYGAVRTPYTMSYGDSLYYNNAYGALDAYYKRCRAARSYEAVAAAAASVYNYAEQTLSQLPQVQNTAMASHLTSTSLDPYDRHLLPTSGAAATAAAAAAAAAAVTAASTSYYGRDRSPLRRATAPVPTVGEGYGYGHESELSQASAAARNSLYDMARYEREQYADRARYSAF | 4 | 4 |  |  | 6 | 1 |  |  |  | 
4 | RRBP1: host protein, UniProt Q9P2E9 (protein, UniProt Q9P2E9 1-1410, looked up) Ribosome-binding protein 1: MDIYDTQTLGVVVFGGFMVVSAIGIFLVSTFSMKETSYEEALANQRKEMAKTHHQKVEKKKKEKTVEKKGKTKKKEEKPNGKIPDHDPAPNVTVLLREPVRAPAVAVAPTPVQPPIIVAPVATVPAMPQEKLASSPKDKKKKEKKVAKVEPAVSSVVNSIQVLTSKAAILETAPKEVPMVVVPPVGAKGNTPATGTTQGKKAEGTQNQSKKAEGAPNQGRKAEGTPNQGKKTEGTPNQGKKAEGTPNQGKKAEGTPNQGKKAEGAQNQGKKVDTTPNQGKKVEGAPTQGRKAEGAQNQAKKVEGAQNQGKKAEGAQNQGKKGEGAQNQGKKAEGAQNQGKKAEGAQNQGKKAEGAQNQGKKAEGAQNQGKKAEGAQNQGKKAEGAQNQGKKVEGAQNQGKKAEGAQNQGKKAEGAQNQGKKAEGAQNQGKKAEGAQNQGKKAEGAQNQGKKAEGAQNQGKKAEGAQNQGKKVEGAQNQGKKAEGAQNQGKKAEGAQNQGKKAEGAQNQGQKGEGAQNQGKKTEGAQGKKAERSPNQGKKGEGAPIQGKKADSVANQGTKVEGITNQGKKAEGSPSEGKKAEGSPNQGKKADAAANQGKKTESASVQGRNTDVAQSPEAPKQEAPAKKKSGSKKKGEPGPPDADGPLYLPYKTLVSTVGSMVFNEGEAQRLIEILSEKAGIIQDTWHKATQKGDPVAILKRQLEEKEKLLATEQEDAAVAKSKLRELNKEMAAEKAKAAAGEAKVKKQLVAREQEITAVQARMQASYREHVKEVQQLQGKIRTLQEQLENGPNTQLARLQQENSILRDALNQATSQVESKQNAELAKLRQELSKVSKELVEKSEAVRQDEQQRKALEAKAAAFEKQVLQLQASHRESEEALQKRLDEVSRELCHTQSSHASLRADAEKAQEQQQQMAELHSKLQSSEAEVRSKCEELSGLHGQLQEARAENSQLTERIRSIEALLEAGQARDAQDVQASQAEADQQQTRLKELESQVSGLEKEAIELREAVEQQKVKNNDLREKNWKAMEALATAEQACKEKLLSLTQAKEESEKQLCLIEAQTMEALLALLPELSVLAQQNYTEWLQDLKEKGPTLLKHPPAPAEPSSDLASKLREAEETQSTLQAECDQYRSILAETEGMLRDLQKSVEEEEQVWRAKVGAAEEELQKSRVTVKHLEEIVEKLKGELESSDQVREHTSHLEAELEKHMAAASAECQNYAKEVAGLRQLLLESQSQLDAAKSEAQKQSDELALVRQQLSEMKSHVEDGDIAGAPASSPEAPPAEQDPVQLKTQLEWTEAILEDEQTQRQKLTAEFEEAQTSACRLQEELEKLRTAGPLESSETEEASQLKERLEKEKKLTSDLGRAATRLQELLKTTQEQLAREKDTVKKLQEQLEKAEDGSSSKEGTSV | 10 | 16 | 32 | 5 | 17 | 5 | 16 | 1 | 22 | 1
5 | SF3B2 (protein, UniProt Q13435 1-895, looked up) Splicing factor 3B subunit 2: MATEHPEPPKAELQLPPPPPPGHYGAWAAQELQAKLAEIGAPIQGNREELVERLQSYTRQTGIVLNRPVLRGEDGDKAAPPPMSAQLPGIPMPPPPLGLPPLQPPPPPPPPPPGLGLGFPMAHPPNLGPPPPLRVGEPVALSEEERLKLAQQQAALLMQQEERAKQQGDHSLKEHELLEQQKRAAVLLEQERQQEIAKMGTPVPRPPQDMGQIGVRTPLGPRVAAPVGPVGPTPTVLPMGAPVPRPRGPPPPPGDENREMDDPSVGPKIPQALEKILQLKESRQEEMNSQQEEEEMETDARSSLGQSASETEEDTVSVSKKEKNRKRRNRKKKKKPQRVRGVSSESSGDREKDSTRSRGSDSPAADVEIEYVTEEPEIYEPNFIFFKRIFEAFKLTDDVKKEKEKEPEKLDKLENSAAPKKKGFEEEHKDSDDDSSDDEQEKKPEAPKLSKKKLRRMNRFTVAELKQLVARPDVVEMHDVTAQDPKLLVHLKATRNSVPVPRHWCFKRKYLQGKRGIEKPPFELPDFIKRTGIQEMREALQEKEEQKTMKSKMREKVRPKMGKIDIDYQKLHDAFFKWQTKPKLTIHGDLYYEGKEFETRLKEKKPGDLSDELRISLGMPVGPNAHKVPPPWLIAMQRYGPPPSYPNLKIPGLNSPIPESCSFGYHAGGWGKPPVDETGKPLYGDVFGTNAAEFQTKTEEEEIDRTPWGELEPSDEESSEEEEEEESDEDKPDETGFITPADSGLITPGGFSSVPAGMETPELIELRKKKIEEAMDGSETPQLFTVLPEKRTATVGGAMMGSTHIYDMSTVMSRKGPAPELQGVEVALAPEELELDPMAMTQKYEEHVREQQAQVEKEDFSDMVAEHAAKQKQKKRKAQPQDSRGGSKKYKEFKF |  |  | 5 | 1 | 5 | 1 |  |  |  | 
6 | APOBEC3F (protein, UniProt Q8IUX4 1-373, looked up) DNA dC->dU-editing enzyme …: MKPHFRNTVERMYRDTFSYNFYNRPILSRRNTVWLCYEVKTKGPSRPRLDAKIFRGQVYSQPEHHAEMCFLSWFCGNQLPAYKCFQITWFVSWTPCPDCVAKLAEFLAEHPNVTLTISAARLYYYWERDYRRALCRLSQAGARVKIMDDEEFAYCWENFVYSEGQPFMPWYKFDDNYAFLHRTLKEILRNPMEAMYPHIFYFHFKNLRKAYGRNESWLCFTMEVVKHHSPVSWKRGVFRNQVDPETHCHAERCFLSWFCDDILSPNTNYEVTWYTSWSPCPECAGEVAEFLARHSNVNLTIFTARLYYFWDTDYQEGLRSLSQEGASVEIMGYKDFKYCWENFVYNDDEPFKPWKGLKYNFLFLDSKLQEILE |  | 4 | 6 | 1 | 6 | 1 |  |  |  | 
